The labels stand for the following.
B1: GLS3000 S56L (antibody, name in Kabat numbering, V domains shown)
VH: QVQLVESGGGVVQPGRSLRLSCAASGFTFSNAWMHWVRQAPGKGLEWVAQIKAKSNNYATYYAESVKGRFTISRDDSKNSLYLQMNSLKTEDTAVYYCRYVHYGAYYGVDAWGQGTTVTVSS
VL: DIVMTQSPLSLPVTPGEPASISCRSSQSLVHSNRNTYLHWYQQKPGQAPRLLIYKVSNRFLGVPDRFSGSGSGTDFTLKISRVEAEDVGVYYCGQGTQVPYTFGQGTKLEIK
notes: one-arm format as m2
B2: GLS3000 T31D (antibody, name in Kabat numbering, V domains shown)
VH: QVQLVESGGGVVQPGRSLRLSCAASGFTFSNAWMHWVRQAPGKGLEWVAQIKAKSNNYATYYAESVKGRFTISRDDSKNSLYLQMNSLKTEDTAVYYCRYVHYGAYYGVDAWGQGTTVTVSS
VL: DIVMTQSPLSLPVTPGEPASISCRSSQSLVHSNRNDYLHWYQQKPGQAPRLLIYKVSNRFSGVPDRFSGSGSGTDFTLKISRVEAEDVGVYYCGQGTQVPYTFGQGTKLEIK
notes: one-arm format as m2
B3: GLS3000 S56T (antibody, name in Kabat numbering, V domains shown)
VH: QVQLVESGGGVVQPGRSLRLSCAASGFTFSNAWMHWVRQAPGKGLEWVAQIKAKSNNYATYYAESVKGRFTISRDDSKNSLYLQMNSLKTEDTAVYYCRYVHYGAYYGVDAWGQGTTVTVSS
VL: DIVMTQSPLSLPVTPGEPASISCRSSQSLVHSNRNTYLHWYQQKPGQAPRLLIYKVSNRFTGVPDRFSGSGSGTDFTLKISRVEAEDVGVYYCGQGTQVPYTFGQGTKLEIK
notes: one-arm format as m2
B4: GLS3000 S56W (antibody, name in Kabat numbering, V domains shown)
VH: QVQLVESGGGVVQPGRSLRLSCAASGFTFSNAWMHWVRQAPGKGLEWVAQIKAKSNNYATYYAESVKGRFTISRDDSKNSLYLQMNSLKTEDTAVYYCRYVHYGAYYGVDAWGQGTTVTVSS
VL: DIVMTQSPLSLPVTPGEPASISCRSSQSLVHSNRNTYLHWYQQKPGQAPRLLIYKVSNRFWGVPDRFSGSGSGTDFTLKISRVEAEDVGVYYCGQGTQVPYTFGQGTKLEIK
notes: one-arm format as m2
B5: GLS3000 S56Q (antibody, name in Kabat numbering, V domains shown)
VH: QVQLVESGGGVVQPGRSLRLSCAASGFTFSNAWMHWVRQAPGKGLEWVAQIKAKSNNYATYYAESVKGRFTISRDDSKNSLYLQMNSLKTEDTAVYYCRYVHYGAYYGVDAWGQGTTVTVSS
VL: DIVMTQSPLSLPVTPGEPASISCRSSQSLVHSNRNTYLHWYQQKPGQAPRLLIYKVSNRFQGVPDRFSGSGSGTDFTLKISRVEAEDVGVYYCGQGTQVPYTFGQGTKLEIK
notes: one-arm format as m2
B6: GLS3000 S56V (antibody, name in Kabat numbering, V domains shown)
VH: QVQLVESGGGVVQPGRSLRLSCAASGFTFSNAWMHWVRQAPGKGLEWVAQIKAKSNNYATYYAESVKGRFTISRDDSKNSLYLQMNSLKTEDTAVYYCRYVHYGAYYGVDAWGQGTTVTVSS
VL: DIVMTQSPLSLPVTPGEPASISCRSSQSLVHSNRNTYLHWYQQKPGQAPRLLIYKVSNRFVGVPDRFSGSGSGTDFTLKISRVEAEDVGVYYCGQGTQVPYTFGQGTKLEIK
notes: one-arm format as m2
B7: GLS3000 S56N (antibody, name in Kabat numbering, V domains shown)
VH: QVQLVESGGGVVQPGRSLRLSCAASGFTFSNAWMHWVRQAPGKGLEWVAQIKAKSNNYATYYAESVKGRFTISRDDSKNSLYLQMNSLKTEDTAVYYCRYVHYGAYYGVDAWGQGTTVTVSS
VL: DIVMTQSPLSLPVTPGEPASISCRSSQSLVHSNRNTYLHWYQQKPGQAPRLLIYKVSNRFNGVPDRFSGSGSGTDFTLKISRVEAEDVGVYYCGQGTQVPYTFGQGTKLEIK
notes: one-arm format as m2
B8: GLS3000 T31N (antibody, name in Kabat numbering, V domains shown)
VH: QVQLVESGGGVVQPGRSLRLSCAASGFTFSNAWMHWVRQAPGKGLEWVAQIKAKSNNYATYYAESVKGRFTISRDDSKNSLYLQMNSLKTEDTAVYYCRYVHYGAYYGVDAWGQGTTVTVSS
VL: DIVMTQSPLSLPVTPGEPASISCRSSQSLVHSNRNNYLHWYQQKPGQAPRLLIYKVSNRFSGVPDRFSGSGSGTDFTLKISRVEAEDVGVYYCGQGTQVPYTFGQGTKLEIK
notes: one-arm format as m2
B9: GLS3000 T31E (antibody, name in Kabat numbering, V domains shown)
VH: QVQLVESGGGVVQPGRSLRLSCAASGFTFSNAWMHWVRQAPGKGLEWVAQIKAKSNNYATYYAESVKGRFTISRDDSKNSLYLQMNSLKTEDTAVYYCRYVHYGAYYGVDAWGQGTTVTVSS
VL: DIVMTQSPLSLPVTPGEPASISCRSSQSLVHSNRNEYLHWYQQKPGQAPRLLIYKVSNRFSGVPDRFSGSGSGTDFTLKISRVEAEDVGVYYCGQGTQVPYTFGQGTKLEIK
notes: one-arm format as m2
B10: GLS3000 S56Y (antibody, name in Kabat numbering, V domains shown)
VH: QVQLVESGGGVVQPGRSLRLSCAASGFTFSNAWMHWVRQAPGKGLEWVAQIKAKSNNYATYYAESVKGRFTISRDDSKNSLYLQMNSLKTEDTAVYYCRYVHYGAYYGVDAWGQGTTVTVSS
VL: DIVMTQSPLSLPVTPGEPASISCRSSQSLVHSNRNTYLHWYQQKPGQAPRLLIYKVSNRFYGVPDRFSGSGSGTDFTLKISRVEAEDVGVYYCGQGTQVPYTFGQGTKLEIK
notes: one-arm format as m2
B11: GLS3000 S56R (antibody, name in Kabat numbering, V domains shown)
VH: QVQLVESGGGVVQPGRSLRLSCAASGFTFSNAWMHWVRQAPGKGLEWVAQIKAKSNNYATYYAESVKGRFTISRDDSKNSLYLQMNSLKTEDTAVYYCRYVHYGAYYGVDAWGQGTTVTVSS
VL: DIVMTQSPLSLPVTPGEPASISCRSSQSLVHSNRNTYLHWYQQKPGQAPRLLIYKVSNRFRGVPDRFSGSGSGTDFTLKISRVEAEDVGVYYCGQGTQVPYTFGQGTKLEIK
notes: one-arm format as m2
B12: GLS3000 S56P (antibody, name in Kabat numbering, V domains shown)
VH: QVQLVESGGGVVQPGRSLRLSCAASGFTFSNAWMHWVRQAPGKGLEWVAQIKAKSNNYATYYAESVKGRFTISRDDSKNSLYLQMNSLKTEDTAVYYCRYVHYGAYYGVDAWGQGTTVTVSS
VL: DIVMTQSPLSLPVTPGEPASISCRSSQSLVHSNRNTYLHWYQQKPGQAPRLLIYKVSNRFPGVPDRFSGSGSGTDFTLKISRVEAEDVGVYYCGQGTQVPYTFGQGTKLEIK
notes: one-arm format as m2
B13: GLS3000 S56M (antibody, name in Kabat numbering, V domains shown)
VH: QVQLVESGGGVVQPGRSLRLSCAASGFTFSNAWMHWVRQAPGKGLEWVAQIKAKSNNYATYYAESVKGRFTISRDDSKNSLYLQMNSLKTEDTAVYYCRYVHYGAYYGVDAWGQGTTVTVSS
VL: DIVMTQSPLSLPVTPGEPASISCRSSQSLVHSNRNTYLHWYQQKPGQAPRLLIYKVSNRFMGVPDRFSGSGSGTDFTLKISRVEAEDVGVYYCGQGTQVPYTFGQGTKLEIK
notes: one-arm format as m2
B14: GLS3000 T31K (antibody, name in Kabat numbering, V domains shown)
VH: QVQLVESGGGVVQPGRSLRLSCAASGFTFSNAWMHWVRQAPGKGLEWVAQIKAKSNNYATYYAESVKGRFTISRDDSKNSLYLQMNSLKTEDTAVYYCRYVHYGAYYGVDAWGQGTTVTVSS
VL: DIVMTQSPLSLPVTPGEPASISCRSSQSLVHSNRNKYLHWYQQKPGQAPRLLIYKVSNRFSGVPDRFSGSGSGTDFTLKISRVEAEDVGVYYCGQGTQVPYTFGQGTKLEIK
notes: one-arm format as m2
B15: GLS3000 T31I (antibody, name in Kabat numbering, V domains shown)
VH: QVQLVESGGGVVQPGRSLRLSCAASGFTFSNAWMHWVRQAPGKGLEWVAQIKAKSNNYATYYAESVKGRFTISRDDSKNSLYLQMNSLKTEDTAVYYCRYVHYGAYYGVDAWGQGTTVTVSS
VL: DIVMTQSPLSLPVTPGEPASISCRSSQSLVHSNRNIYLHWYQQKPGQAPRLLIYKVSNRFSGVPDRFSGSGSGTDFTLKISRVEAEDVGVYYCGQGTQVPYTFGQGTKLEIK
notes: one-arm format as m2

The record followed here is patent publication US20220040297A1 (Chugai, published 2022).

For the experiment, the target named is CD3ε homodimer protein (human, UniProt P07766 23-126, limits assumed). The experiment can be described thus: SPR, immobilized CD3ε homodimer.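 Note: biacore T200 surface plasmon resonance at 25 °C, antibody variants flowed as analytes over amine-coupled CD3ε homodimer on a CM4 chip, variant binding amount divided by that of GLS3000 antibody.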
CD3ε homodimer protein, sequence (P07766 23-126 limits assumed): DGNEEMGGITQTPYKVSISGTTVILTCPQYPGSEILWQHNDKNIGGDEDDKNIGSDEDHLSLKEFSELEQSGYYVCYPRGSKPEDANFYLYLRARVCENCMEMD
Take B1: the “ratio of amounts bound (vs GLS3000)” value is 1.02.

For B2, the “ratio of amounts bound (vs GLS3000)” value came out at 0.23.

For B3, the “ratio of amounts bound (vs GLS3000)” value was 0.97.

On to B4, for which the “ratio of amounts bound (vs GLS3000)” value was found to be 1.38.

As for B5, the “ratio of amounts bound (vs GLS3000)” value was determined as 1.04.

With B6, the “ratio of amounts bound (vs GLS3000)” value came to 0.95.

B7: the “ratio of amounts bound (vs GLS3000)” value was 0.92.

Consider B8, for which the “ratio of amounts bound (vs GLS3000)” value turned out to be 0.32.

Take B9: the “ratio of amounts bound (vs GLS3000)” value was determined as 0.49.

Turning to B10, the “ratio of amounts bound (vs GLS3000)” value came out at 1.46.

As for B11, the “ratio of amounts bound (vs GLS3000)” value worked out at 1.36.

With B12, the “ratio of amounts bound (vs GLS3000)” value came to 0.95.

For the molecule B13, the “ratio of amounts bound (vs GLS3000)” value turned out to be 1.05.

Take B14: the “ratio of amounts bound (vs GLS3000)” value amounted to 1.04.

Consider B15, for which the “ratio of amounts bound (vs GLS3000)” value was found to be 0.97.
